In the RNAGym collection of RNA variant scans (doi:10.1073/pnas.2313332121):

B1: TPR t1 (parent)
chain: GACCAAUCUGCCCUCAGAGCUCGAGAACAUCUUCGGAUGCAGAGGAGGCAGGCUUCGGUGGCGCGAUAGCGCCAACGUCCUCAACCUCCAAUGCAUCCCACCACAUGAUGAUGCCUGAAGAGCCUUGGUUUUUUG

Variants of: B1
Experiment: polymerase ribozyme fitness, log enrichment relative to wild type (log ratio); higher = more active; in vitro selection for triplet polymerase activity
Method in brief: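 Mutant libraries for each subunit of a heterodimeric triplet polymerase ribozyme were made by PCR and then transcribed. Each library underwent one round of in vitro selection in triplicate: annealing with a biotinylated primer, the partner subunit and triplets, frozen incubation at −7 °C, gel excision of extended constructs, streptavidin-bead capture and RT-PCR. Input and output libraries were Illumina-sequenced, and only genotypes with ≥10 input reads and ≥1 read per output were kept. Fitness is the logarithm, base 2, of genotype enrichment over wild-type enrichment, computed from inverse-variance-weighted replicate averages.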

Point of comparison: A6G C70A C97U, “polymerase ribozyme fitness (log ratio)” value -1.59. Against it:
- A6C A26G U38G C53G — lower, -5.37
- A5U U54C G69A U112C — higher, -0.469
- A6C G52U G63A — higher, -0.684
- A6C C8G C72A — higher, 0.431
- A5U U54G — higher, -0.237
- A5G G47U — higher, -1.19
- A6U A37U U112A U130A — higher, 0.657
- A6U G39A A74C A91U — lower, -2.33
- A5U C12U A18G C80U C114U — lower, -4.01
- A6G G48A G69A U129G — lower, -5.25
- A5U A41G U55A C70G — lower, -3.9
- A5U A29U G71A U78G C123A G128U — lower, -4.18
- A6G C12A A50G G120A — higher, 2.01
- A6U A18G C20U C73G U125A — lower, -2.1
- A6U G58C G63U C64A A119U — lower, -6.07
- A5U C56G A74U G110A U116G C124G G135U — lower, -6.08
- A5U C12A A90G — higher, -0.323
- A6U C15U A26G C86U A100U G120A C123A U125G — lower, -5.49
- A6G A18U — higher, -1.31
- A5U C102A — lower, -2.01
- A6U G44A C73U C86G — lower, -3.18
- A6U C13A C22G A75U — lower, -4.17
- A5U U7A C40G U55G C56U G60A U130C — lower, -1.94
- A6C G57A C62G G120C — lower, -4.68
- A5G G45C G69A — lower, -2.95
- A6U G44A A50U C94G — lower, -4.1
- A6U C53U G61C G77C C104A — lower, -2.75
- A6U G61A C79G — within 0.2 log units, -1.4
- A6C G47A C86U U133G — higher, -0.584
- A6U C15A G113A — lower, -4.98
- A5G U55C C72A C73A G77U A121C — lower, -1.86
- A6U A16C C40U C70U C85G — lower, -5.17
- A5G U78A G120C — higher, 0.799
- A6U A18U C28U C70A C123G — lower, -6.38
- A6U C115U A119U U130G — higher, -1.27
- A6U G47A C70U C94U — within 0.2 log units, -1.74
- A6G U21C G61C C114A — lower, -3.62
- A6C C73G G93U G128U — lower, -5.16
- A6G U7G A18C G52U U81A C115G — lower, -4.51
- A6U C22G U87A U92C A121U — lower, -2.63
- A6G A41G U87A G110A U125G — lower, -3.92
- A6U G17U C40U C76G — lower, -3.15
- A6G A24G G36U C49A — lower, -3.79
- A6G C62U U129C — higher, -0.185
- A5U G10A C11A C72G G110A — lower, -1.86
- A5U A26G — lower, -2.87
- A6G C56A G69U C104U — higher, -0.478
- A5U C13G C49A G63U U81G A121C — lower, -3.63
- A6G G61C C79A U112G C114U — lower, -6.62
- A6U G17C — lower, -4.25
- A5G G51A A84C C89U U106A U112C — lower, -2.68
- A5U C11U G63C C80A A105C G113U — lower, -5.39
- A6C C70U C73G — lower, -2.81
- A6C A41C C94A U129G — lower, -4.39
- A6U G23U — lower, -4.65
- A5U C15G G71C A84U — lower, -4.19
- A6C C8G U92G A121C C123G — higher, 0.289
- A5U C56U A91C U112G — the same, -1.59
- A5U G19A C40A A111G — lower, -2.76
- A6U G44A G63C G113U — lower, -5.44
- A6U C88U G128A — lower, -2.51
- A5G G61C C104A — lower, -2.73
- A6U G10U C13G C40U A41C G63U U78C C79A A121G — lower, -4.13
- A5G U54G C88A — higher, -0.448
- A5U G35U — lower, -5.72
- A5U G35C — lower, -4.38
- A5U A41U G69U — higher, 0.0184
- A5G G57A G69C — within 0.2 log units, -1.65
- A6U A16U C40G C56A — lower, -3.22
- A6G G113A — higher, -0.703
- A6G G51A A75U C88G U92C — lower, -6.38
- A6U C40U C56U G69C A121C — lower, -6.3
- A6G C13U C102U G122A — lower, -2.62
- A6G C97U U112A — higher, 1.48
- A5U G127U — lower, -2.48
- A5U C20A C40A G113C C115U — lower, -4.07
- A6C U9A C15G G45A C104A C124G — lower, -3.65
- A6G C8G U30C A41G G60U — lower, -3.67
- A6C G39U G63A — within 0.2 log units, -1.63
- A6G A41U C70U C124A — higher, -0.611
- A5U G47U — higher, -1.29
- A6G C62A — higher, -0.491
